Series [1] has as its target rPTBP1;rMATR3 PRI-RRMs (human?;human?, UniProt P26599;P43243 1-557;341-592, |). Description: UV crosslinking; PTBP1 crosslinking retained at excess rMATR3; heteromeric complex; 30 C 20 min, 10 fmol RNA, UV crosslink on ice (1920 mJ), RNase A1/T1 digestion, 15% denaturing PAGE; buffer, salt and pH not stated. The settings on record: protein: recombinant;recombinant; (HisTrap purified); copies: 1;1; label: 32P-UTP.

In series [2] the target is T1, rMATR3 RRMs (UniProt P43243 362-592).
T1 sequence: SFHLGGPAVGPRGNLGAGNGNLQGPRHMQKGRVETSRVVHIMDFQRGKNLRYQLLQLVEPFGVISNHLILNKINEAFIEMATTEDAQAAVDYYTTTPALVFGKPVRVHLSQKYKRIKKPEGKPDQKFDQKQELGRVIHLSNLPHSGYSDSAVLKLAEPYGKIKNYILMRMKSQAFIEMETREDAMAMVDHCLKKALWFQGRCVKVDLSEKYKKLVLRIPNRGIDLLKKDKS
Kind of series: UV crosslinking competition; competes with 0.5 uM rPTBP1 at equimolar concentration; 30 C 20 min, 10 fmol RNA, UV crosslink on ice (1920 mJ), RNase A1/T1 digestion, 15% denaturing PAGE; buffer, salt and pH not stated. To be noted: protein: recombinant; (HisTrap purified); label: 32P-UTP.

Chain of rPTBP1;rMATR3 PRI-RRMs (P26599 whole entry, one chain of several): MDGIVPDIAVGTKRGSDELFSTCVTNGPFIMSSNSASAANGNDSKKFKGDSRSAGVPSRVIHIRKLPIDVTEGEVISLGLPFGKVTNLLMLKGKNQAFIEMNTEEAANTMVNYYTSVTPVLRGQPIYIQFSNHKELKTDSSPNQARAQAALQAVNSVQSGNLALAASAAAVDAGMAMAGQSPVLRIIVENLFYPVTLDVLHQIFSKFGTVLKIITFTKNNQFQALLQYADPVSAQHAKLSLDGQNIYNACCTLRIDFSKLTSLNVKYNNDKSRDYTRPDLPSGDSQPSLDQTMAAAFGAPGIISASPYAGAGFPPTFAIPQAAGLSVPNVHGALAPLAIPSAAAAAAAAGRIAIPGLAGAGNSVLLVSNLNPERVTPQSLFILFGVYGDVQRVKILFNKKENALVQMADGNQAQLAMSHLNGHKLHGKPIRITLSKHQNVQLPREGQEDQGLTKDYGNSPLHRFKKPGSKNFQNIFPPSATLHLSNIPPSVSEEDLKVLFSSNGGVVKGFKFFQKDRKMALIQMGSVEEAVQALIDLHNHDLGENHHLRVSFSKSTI

B1: ATCTT2 RNA probe (ssRNA)
RNA: GAAUACGAAUUCCAUAUAUGAUCGAUAAAUAUAUGGUACCUUGCUAUCUUACAUCUUUUUACGGAUCCCAUAUAUGAUCGAUAUAUAUAAGCU
Regarding B1, the binding result in series [1] and in series [2] was “binds” throughout.

For the origin of these results see publication PMC6108849, “Heteromeric RNP Assembly at LINEs Controls Lineage-Specific RNA Processing”.
